Experimental data reported in paper doi:10.1101/2025.03.14.643404 (2025).

Legend:
[1] = biological target: T1, BCL6^BTB (residues 5-129; C8Q, C67R, C84N), tags cleaved (pSG219C) (human, UniProt P41182 5-129, C8Q | C67R | C84N); experiment: ITC; p300 binding to BCL6:TCIP3 binary complex (ternary, alpha 3.5)
[2] = biological target: T1, BCL6^BTB (residues 5-129; C8Q, C67R, …); experiment: ITC; BCL6 binding to p300:TCIP3 binary complex (ternary, alpha 13)

B1: 6xHis-p300^BD (p300 bromodomain) (domain or fragment)
chain: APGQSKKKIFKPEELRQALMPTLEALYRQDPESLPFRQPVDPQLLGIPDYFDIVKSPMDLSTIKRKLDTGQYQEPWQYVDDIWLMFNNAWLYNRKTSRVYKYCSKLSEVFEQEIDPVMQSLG
Kd [1]: 2.37 nM | Kd [2]: 19.8 nM
